Results: US20220098328A1, “ANTIBODIES TO M(H)DM2/4 AND THEIR USE IN DIAGNOSING AND TREATING CANCER” (NomoCan Pharmaceuticals LLC, priority 2017, published 2022)
Where a chain is given by its changes, count along the chain named. Each block holds one molecule with its values, some of them ahead of it.

How the values were obtained:
[1] = tested on: human pancreatic cancer MIAPaCa-2 cells; assay: Complement-dependent cytotoxicity with normal human serum (PI staining); format: cell-based; conditions: antibody 30 μg/ml, NHS 1:10, 2 hours
Protocol: Methodology used: Cells seeded in 24-well dishes were grown overnight at 37° C. in a humidified atmosphere supplied with 5% CO2-95% air mixture. The following day the cells were thoroughly washed with ice-cold PBS and incubated with HDM2-specific mAb NMC-103 diluted in culture medium containing 1% BSA to a final antibody concentration of 30 μg/ml. After 30 min, NHS was added to the cells at a final concentration of 1:10 in the culture medium with 1% BSA together with 1% propidium iodide (PI) solution. Cells were then incubated with NHS for 2 hours and images were taken using EVOS FL fluorescent microscope (Life Technologies).
Methodology used: Cells seeded in 24-well dishes were grown over night at 37° C. in a humidified atmosphere supplied with 5% CO2-95% air mixture. The following day the cells were thoroughly washed with ice-cold PBS and incubated with various HDM2-specific antibodies (i.e., OP145, N-20 and C-18 antibodies; see description of the antibodies in Table 10) or control antibodies (directed to the intra-cellular protein Cytochrome C) diluted in culture medium containing 1% BSA to a final antibody concentration of 5-10 ug/ml. After 30 min, NHS was added to the cells to make a final concentration of at 1:30 in the culture medium with 1% BSA together with 1% propidium iodide (PI) solution. […]

[2] = tested on: HeLa cervical cancer cells; assay: Cell-ELISA on intact cells; format: cell-based, human; conditions: mAb 5 μg/mL
Protocol: In a 96-well microplate, 15,000 cells/well were cultured overnight. The next day, unbound cells were washed off with sterile 1×PBS. The cells in each well were fixed with freshly prepared 4% buffered paraformaldehyde (pH 7.2) for 1 hour, followed by 3 washes with 1×PBS. The wells were then blocked with 5% BSA in PBS (100 μl/well) for 2 hours at room temperature. Microplate wells were then washed 5 times with 300 μl of ice cold 1×PBS. Monoclonal antibodies NMC-H103 (VH4/VK3) or NMC-C303 at 5 μg/mL in 1% BSA/PBS were then incubated with various cancer cells for 2 hours at room temperature. Wells were then washed with 300 μl of ice-cold 1×PBS for 5 times and corresponding secondary antibody HRP-GaH F(ab′)2 diluted 1:2000 or 1:4000 in PBS with 1% BSA were added at 100 μl/well for 1 hour at room temperature followed by washing 5 times with 300 μl of ice-cold 1×PBS. TMB Substrate Solution (1-Step™ Ultra TMB-ELISA, ThermoFisher, Cat. No. 34028) was then added at 50 μL to each microplate well and incubated at room temperature for 30 minutes. The reaction was stopped by addition of 50 μL of stop solution (ThermoFisher, Cat. No. SS04) to each well and absorbance of each well was measured at OD450 nm. The absorbance value of each experimental well was corrected for the absorbance value obtained from wells treated with isotype-identical mAbs included in each experiment.

OVCAR-3 cells = assay: Flow cytometry on live (7AAD negative) cells; format: cell-based, human
Protocol: Cells that had been allowed to grow to about 80% confluency in 75 cm^2 tissue culture flasks were released with either EDTA (10 mmols; pH 7.2; 5 min, 37° C.) or Trypsin (Gibco TrypLE Express), washed several times with ice-cold PBS, and blocked for 20 minutes on ice with 5% human serum albumin in PBS (intact, non-permeabilized cells). After establishing viability, the cell number was adjusted to 10^6 cells/ml and kept in ice-cold PBS until staining. Cells were then incubated with primary antibodies NMC-H103 (VH4/VK3) or NMC-C303 (1 μg/ml) for 30 minutes on ice. Following primary antibody incubation, cells were washed 3 times with ice-cold PBS, followed by incubation with goat anti-human PE labeled secondary antibody (Life technologies H10104) on ice for 20 minutes. Cells were then washed 3 times with PBS and incubated with 7AAD (5 μl/[…] of buffer) before flow cytometry analysis using Fortessa 5.

[3] = molecular target: NMC-P3 peptide (SEQ ID NO:3), amino acids 475-491 of HDM2 (Homo sapiens, UniProt Q00987); assay: Peptide-ELISA; format: binding; conditions: 5 μg/ml peptide on plate, OD 450 nm
Protocol: Peptide-ELISA Methodology: 5 μg/ml of NMC-P1, NMC-P2 or NMC-P3 peptide antigen was dried onto a 96-well ELISA plate overnight. Plates were then blocked with 5% BSA in 1× phosphate-buffered saline (PBS) (100 μl/well) for 2 hours at room temperature. Microplate wells were then washed 5 times with 300 μl of ice cold 1×PBS. Appropriate dilutions of monoclonal antibodies NMC-103, NMC-204 or NMC-303 in 1% bovine serum albumin (BSA) in PBS solution were then incubated with their corresponding peptides (NMC-P1, NMC-P2 or NMC-P3, respectively) at room temperature. After 2 hours, wells were washed 5 times with 300 μl ice-cold PBS/well and 100 μl secondary antibody (HRP-labeled Goat anti-Mouse F(ab′)2 H&L cross-adsorbed secondary antibody (HRP-GaM F(ab′)2), ThermoFisher, Cat. No. A24524) diluted 1:2500 to 1:5000 in PBS-1% BSA solution were added and the incubation continued at room temperature. After 1 hour, the wells were washed again 5 times with 200 μl of ice-cold PBS and 50 μL of the TMB Substrate Solution (1-Step™ Ultra TMB-ELISA, ThermoFisher, Cat. No. 34028) were added to each well and color was allowed to develop for 30 minutes at room temperature. The reaction was stopped by addition of 50 μL of stop solution (ThermoFisher, Cat. No. SS04) to each well and absorbance of each well was read immediately for optical density (OD) at 450 nm.

B1: NMC-103: mouse monoclonal antibody of the IgG1 isotype that binds to NMC-P1 (SEQ ID NO:1); VH SEQ ID NO:36, VL SEQ ID NO:37 (antibody, V domains shown)
VH: EVQLQESGGGLVQPGGSLRLSCTTSGFTFTHYYMSWVRQPPGKALEWLGFIRNKAKGYTAEYSASVKGRFTISRDNSQSILYLQMNTLRPEDSATYYCARDIGDNWGQGTLVTVSS
VL: DIVMTQAAFSNPVTLGTSASISCRSSKNLLHSNGITYLYWYLQRPGQSPQLLISRVSNLASGVPNRFSGSESGTDFTLRISRVEAEDVGVYFCAQLLELPYTFGGGTKLEIK
modifications: mAb NMC-103 Heavy Chain Variable Region; mAb NMC-103 Light Chain Variable Region
- complement-mediated cytotoxicity (PI uptake) [1]: triggered complement-mediated cytotoxicity

B2: NMC-H103 (VH4/VK3): humanized NMC-103 variant, human IgG1, VH4 (SEQ ID NO:299) and VK3 (SEQ ID NO:297) (antibody, V domains shown)
VH: B1 VH with Q5V, G16P, P40A, A44G, Q78K, I80T, T87S, P90A, S93T, T95V
VL: B1 VL with A7T, A8P, F9L, N11S, T17Q, S18P, R44K, N65D, R79K, L109V
modifications: human IgG1 constant regions lacking entries; mAb NMC-H103.VH4Heavy Chain Variable Region; mAb NMC-H103.VK3Light Chain Variable Region
- binding to intact, un-permeabilized cells, cell-based ELISA [2]: binding
- binding to live cells briefly treated with trypsin, flow cytometry (OVCAR-3 cells; 7AAD negative): reduced
- binding to live (7AAD negative) cells, flow cytometry (OVCAR-3 cells; antibody 1 μg/ml): binding

- binding to NMC-P3 peptide [3]: did not bind
B3: NMC-204: mouse monoclonal antibody of the IgG3 isotype that binds to NMC-P2 (SEQ ID NO:2); VH SEQ ID NO:38, VL SEQ ID NO:39 (antibody, V domains shown)
VH: EVQLQESGSVLVRPGASVKLSCKASGDTLSGSWMHWAMQRPGQGLEWIGEIHLNRGTTNYNEKFKGKATVTVDTSSSTAYVDLSSLTSEDSAVYYCARSPGFAYWGQGTLVTVSA
VL: GIVMTQAAPSVPVTPGESVSISCRSSKSLLHSNGNSYLYWFLQRPGQSPQLLIYRMSNLASGVPDRFSGSGSGTAFTLRITRVEAEDVGVYYCMQHLEYPFTFGSGTKLEIK
modifications: mAb NMC-204 Heavy Chain Variable Region; mAb NMC-204 Light Chain Variable Region
